The values below come from publication PMC10844655, “G-quadruplexes promote the motility in MAZ phase-separated condensates to activate CCND1 expression and contribute to hepatocarcinogenesis”.

Changes are numbered by the printed parent chain.

The target in data set [1] is T1, MAZ WT (human, UniProt P56270 1-477).
T1 sequence: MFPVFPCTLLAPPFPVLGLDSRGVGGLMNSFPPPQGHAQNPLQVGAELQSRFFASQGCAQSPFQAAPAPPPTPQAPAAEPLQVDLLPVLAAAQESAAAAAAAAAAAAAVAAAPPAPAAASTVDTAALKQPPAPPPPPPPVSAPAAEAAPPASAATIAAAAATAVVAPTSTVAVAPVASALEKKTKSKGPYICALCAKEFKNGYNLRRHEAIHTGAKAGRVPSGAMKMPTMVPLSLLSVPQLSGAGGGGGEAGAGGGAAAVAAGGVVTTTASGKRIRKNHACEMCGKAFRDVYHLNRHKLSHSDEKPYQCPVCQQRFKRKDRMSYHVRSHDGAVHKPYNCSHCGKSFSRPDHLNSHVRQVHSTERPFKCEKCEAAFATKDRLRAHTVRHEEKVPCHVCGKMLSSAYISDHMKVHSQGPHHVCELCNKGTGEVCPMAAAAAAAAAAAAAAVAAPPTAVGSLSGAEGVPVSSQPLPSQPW
The data set can be described thus: EMSA; Binding buffer 250 mM HEPES, 500 mM KCl, 20 mM MgSO4, 10 mM DTT pH 8.0 (so in the source), on ice 30 min; G4 oligos annealed in 50 mM Tris-HCl, 50 mM KCl, 40% PEG200; 8% native PAGE (G4 gels with 100 mM KCl, 40% PEG200). Conditions: protein: recombinant, tags: His6 (also mCherry-His6 fusion), label: FAM. (In general: In EMSA bound probe runs differently from free probe, usually more slowly.)

Data set [2] concerns the target T1, MAZ WT. The data set can be described thus: EMSA; KCl-annealed; Binding buffer 250 mM HEPES, 500 mM KCl, 20 mM MgSO4, 10 mM DTT pH 8.0 (so in the source), on ice 30 min; G4 oligos annealed in 50 mM Tris-HCl, 50 mM KCl, 40% PEG200; 8% native PAGE (G4 gels with 100 mM KCl, 40% PEG200). Conditions: protein: recombinant, tags: His6 (also mCherry-His6 fusion), label: FAM.

In data set [3] the target is T2, MAZ(ZF2-3) (human, UniProt P56270 279-329).
T2 sequence: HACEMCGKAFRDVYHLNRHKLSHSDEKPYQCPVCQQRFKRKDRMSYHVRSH
Description: EMSA; Binding buffer 250 mM HEPES, 500 mM KCl, 20 mM MgSO4, 10 mM DTT pH 8.0 (so in the source), on ice 30 min; G4 oligos annealed in 50 mM Tris-HCl, 50 mM KCl, 40% PEG200; 8% native PAGE (G4 gels with 100 mM KCl, 40% PEG200). As to conditions: protein: recombinant; tags: mCherry; His6; label: FAM; G4 parallel, intra- and/or intermolecular.

Data set [4] concerns the target T3, MAZ(ZF2-4) (human, UniProt P56270 279-360).
T3 sequence: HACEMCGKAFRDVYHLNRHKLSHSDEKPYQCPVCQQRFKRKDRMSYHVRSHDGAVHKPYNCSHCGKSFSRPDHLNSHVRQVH
Described as above. Conditions: protein: recombinant; tags: mCherry; His6; label: FAM; G4 parallel, intra- and/or intermolecular.

For data set [5], the target named is T4, MAZ(ZF4) (human, UniProt P56270 337-360).
T4 chain: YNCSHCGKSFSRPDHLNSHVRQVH
The data set is described as above. As to conditions: protein: recombinant; tags: mCherry; His6; label: FAM; G4 parallel, intra- and/or intermolecular.

The target of data set [6] is T5, MAZ(ZF3-4) (human, UniProt P56270 307-360).
T5 sequence: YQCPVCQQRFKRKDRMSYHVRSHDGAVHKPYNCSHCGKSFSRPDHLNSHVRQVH
The data set is described as above. Conditions: protein: recombinant; tags: mCherry; His6; label: FAM; G4 parallel, intra- and/or intermolecular.

The target of data set [7] is BRD4-IDR (UniProt O60885 674-1351). The description is as above. Conditions: protein: recombinant, tags: EGFP, His6, label: FAM.
Data set [8] concerns the target MED1-IDR (UniProt Q15648 948-1574). The data set is described as above. Conditions: protein: recombinant, tags: EGFP, His6, label: FAM.
In data set [9] the target is T1, MAZ WT. Description: competition; unlabeled WT vs FAM-WT; Binding buffer 250 mM HEPES, 500 mM KCl, 20 mM MgSO4, 10 mM DTT pH 8.0 (so in the source), on ice 30 min; G4 oligos annealed in 50 mM Tris-HCl, 50 mM KCl, 40% PEG200; 8% native PAGE (G4 gels with 100 mM KCl, 40% PEG200). As to conditions: protein: recombinant; tags: His6 (also mCherry-His6 fusion); label: FAM; G4 parallel, intra- and/or intermolecular.

Setting [10] is: G4 parallel, intra- and/or intermolecular.

MED1-IDR, sequence (Q15648 948-1574): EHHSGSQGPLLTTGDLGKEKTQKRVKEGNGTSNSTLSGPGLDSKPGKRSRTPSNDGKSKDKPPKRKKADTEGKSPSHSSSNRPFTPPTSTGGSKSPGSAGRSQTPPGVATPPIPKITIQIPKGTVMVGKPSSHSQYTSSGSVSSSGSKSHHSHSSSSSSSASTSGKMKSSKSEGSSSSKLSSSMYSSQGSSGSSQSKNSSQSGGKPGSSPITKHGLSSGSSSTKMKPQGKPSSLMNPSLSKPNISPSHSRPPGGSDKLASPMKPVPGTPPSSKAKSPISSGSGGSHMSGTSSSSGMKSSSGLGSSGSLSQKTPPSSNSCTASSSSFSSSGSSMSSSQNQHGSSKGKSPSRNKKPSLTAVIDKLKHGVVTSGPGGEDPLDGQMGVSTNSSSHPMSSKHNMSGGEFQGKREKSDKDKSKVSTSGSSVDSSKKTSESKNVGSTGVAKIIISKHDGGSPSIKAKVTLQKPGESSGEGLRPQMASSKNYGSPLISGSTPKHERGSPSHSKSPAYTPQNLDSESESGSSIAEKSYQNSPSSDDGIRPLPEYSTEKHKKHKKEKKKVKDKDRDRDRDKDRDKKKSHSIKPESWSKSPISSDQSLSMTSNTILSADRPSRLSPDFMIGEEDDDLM

B1: BS3 (dsDNA)
DNA 1: GGGGGGCGGGGGCG
DNA 2: CGCCCCCGCCCCCC
With B1, the binding result in data set [1] (blunt) is “binds”.

B2: BS2 (dsDNA)
DNA 1: AGCGGGAGGGGGGC
DNA 2: GCCCCCCTCCCGCT
For the molecule B2, the binding result in [1] (blunt) is on record as “binds”.

With TGAGGGTGGGTAGGGTGGGTAA (structured_DNA) [MYC-G4 (Table S2)], the binding result in [1] (G4 parallel, 3 quartets) is “binds”.

For the molecule GGAGGAGGAGGAGGAGGAGGAGGA (structured_DNA) [MYB-G4], in data set [1] (2 G4s with two quartets), the binding result is listed as “binds”.

B3: CCND1-G4 Mut2 (structured_DNA)
DNA: ATGGGAGCGAGAGGAGGGCGGGGGCGGACGCAGGAGGAGGGGGCGCGGGCG
As to B3, the binding result in data set [2] (intermolecular parallel G4) was “binds”.

B4: CCND1-G4 WT (structured_DNA)
DNA: B3 DNA with A10G, A15G, A28G, A35G
For the molecule B4, the binding result is “no binding” in data set [3]; “binds” in data set [4]; “no binding” in data set [5]; “no binding” in data set [6]; “binds” in data set [7] (setting [10]); “binds” in data set [8] (setting [10]). In data set [9], the binding result is “binds”.

For GGGGCGCGGGGCGCGGGGCATGGGG (structured_DNA) [MDM2-G4], the binding result in data set [1] (G4 antiparallel, 4 quartets) is given as “binds”.

Turning to TAGGGTTAGGGTTAGGGTTAGGGTTAG (structured_DNA) [TEL-G4], the binding result in data set [1] (G4 hybrid, 3 quartets) is “binds”.

Consider GGGCGCGGGAGGAATTGGGCGGG (structured_DNA) [BCL2-G4], for which the binding result in data set [1] (G4 hybrid, 3 quartets) was “binds”.

B5: CCND1-G4 Mut1 (ssDNA)
DNA: ATGAGAGCGAGAGAGAGACGAGAGCGAGCGCAGAGAGAGAGAGCGCGAGCG
B5: the binding result in [7] (no G4), in [8] (no G4) and in data set [2] (no G4) was “no binding” in each case.

B6: BS1 (dsDNA)
DNA 1: AGGGGGAGGGGGCG
DNA 2: CGCCCCCTCCCCCT
Take B6: in data set [1] (blunt), the binding result is reported as “binds”.
